# Assay results: US20120172295A1 (INDIANA UNIVERSITY RESEARCH AND TECHNOLOGY, published 2012)
# Positions of bridges follow the written chain, without caps; N, C: chain ends. Non-standard residues stand in square brackets, D forms with d. No end group written: not given here. PEG = not defined here; Aib = CC(C)(N)C(=O)O
# B1: Chimera AIB2, Gly29,30 Cys24 Cex (SEQ ID NO: 490), parent w/o PEG (peptide)
# peptide: H[Aib]QGTFTSDYSKYLDEQAAKEFICWLMNGGPSSGAPPPS-NH2
# modifications: N-terminus assumed
# SMILES: CC[C@H](C)[C@H](NC(=O)[C@H](Cc1ccccc1)NC(=O)[C@H](CCC(=O)O)NC(=O)[C@H](CCCCN)NC(=O)[C@H](C)NC(=O)[C@H](C)NC(=O)[C@H](CCC(N)=O)NC(=O)[C@H](CCC(=O)O)NC(=O)[C@H](CC(=O)O)NC(=O)[C@H](CC(C)C)NC(=O)[C@H](Cc1ccc(O)cc1)NC(=O)[C@H](CCCCN)NC(=O)[C@H](CO)NC(=O)[C@H](Cc1ccc(O)cc1)NC(=O)[C@H](CC(=O)O)NC(=O)[C@H](CO)NC(=O)[C@@H](NC(=O)[C@H](Cc1ccccc1)NC(=O)[C@@H](NC(=O)CNC(=O)[C@H](CCC(N)=O)NC(=O)C(C)(C)NC(=O)[C@@H](N)Cc1c[nH]cn1)[C@@H](C)O)[C@@H](C)O)C(=O)N[C@@H](CS)C(=O)N[C@@H](Cc1c[nH]c2ccccc12)C(=O)N[C@@H](CC(C)C)C(=O)N[C@@H](CCSC)C(=O)N[C@@H](CC(N)=O)C(=O)NCC(=O)NCC(=O)N1CCC[C@H]1C(=O)N[C@@H](CO)C(=O)N[C@@H](CO)C(=O)NCC(=O)N[C@@H](C)C(=O)N1CCC[C@H]1C(=O)N1CCC[C@H]1C(=O)N1CCC[C@H]1C(=O)N[C@@H](CO)C(N)=O
# B2: Chimera AIB2, Cys29 (SEQ ID NO: 487), parent w/o PEG (peptide)
# peptide: H[Aib]QGTFTSDYSKYLDEQAAKEFIAWLMNC-NH2
# modifications: N-terminus assumed
# SMILES: CC[C@H](C)[C@H](NC(=O)[C@H](Cc1ccccc1)NC(=O)[C@H](CCC(=O)O)NC(=O)[C@H](CCCCN)NC(=O)[C@H](C)NC(=O)[C@H](C)NC(=O)[C@H](CCC(N)=O)NC(=O)[C@H](CCC(=O)O)NC(=O)[C@H](CC(=O)O)NC(=O)[C@H](CC(C)C)NC(=O)[C@H](Cc1ccc(O)cc1)NC(=O)[C@H](CCCCN)NC(=O)[C@H](CO)NC(=O)[C@H](Cc1ccc(O)cc1)NC(=O)[C@H](CC(=O)O)NC(=O)[C@H](CO)NC(=O)[C@@H](NC(=O)[C@H](Cc1ccccc1)NC(=O)[C@@H](NC(=O)CNC(=O)[C@H](CCC(N)=O)NC(=O)C(C)(C)NC(=O)[C@@H](N)Cc1c[nH]cn1)[C@@H](C)O)[C@@H](C)O)C(=O)N[C@@H](C)C(=O)N[C@@H](Cc1c[nH]c2ccccc12)C(=O)N[C@@H](CC(C)C)C(=O)N[C@@H](CCSC)C(=O)N[C@@H](CC(N)=O)C(=O)N[C@@H](CS)C(N)=O
# B3: Chimera AIB2, Gly29,30 Cys40 Cex (SEQ ID NO: 488), parent w/o PEG (peptide)
# peptide: H[Aib]QGTFTSDYSKYLDEQAAKEFIAWLMNGGPSSGAPPPSC-NH2
# modifications: N-terminus assumed
# SMILES: CC[C@H](C)[C@H](NC(=O)[C@H](Cc1ccccc1)NC(=O)[C@H](CCC(=O)O)NC(=O)[C@H](CCCCN)NC(=O)[C@H](C)NC(=O)[C@H](C)NC(=O)[C@H](CCC(N)=O)NC(=O)[C@H](CCC(=O)O)NC(=O)[C@H](CC(=O)O)NC(=O)[C@H](CC(C)C)NC(=O)[C@H](Cc1ccc(O)cc1)NC(=O)[C@H](CCCCN)NC(=O)[C@H](CO)NC(=O)[C@H](Cc1ccc(O)cc1)NC(=O)[C@H](CC(=O)O)NC(=O)[C@H](CO)NC(=O)[C@@H](NC(=O)[C@H](Cc1ccccc1)NC(=O)[C@@H](NC(=O)CNC(=O)[C@H](CCC(N)=O)NC(=O)C(C)(C)NC(=O)[C@@H](N)Cc1c[nH]cn1)[C@@H](C)O)[C@@H](C)O)C(=O)N[C@@H](C)C(=O)N[C@@H](Cc1c[nH]c2ccccc12)C(=O)N[C@@H](CC(C)C)C(=O)N[C@@H](CCSC)C(=O)N[C@@H](CC(N)=O)C(=O)NCC(=O)NCC(=O)N1CCC[C@H]1C(=O)N[C@@H](CO)C(=O)N[C@@H](CO)C(=O)NCC(=O)N[C@@H](C)C(=O)N1CCC[C@H]1C(=O)N1CCC[C@H]1C(=O)N1CCC[C@H]1C(=O)N[C@@H](CO)C(=O)N[C@@H](CS)C(N)=O
# B4: Chimera AIB2, Gly29,30 Cys40 Cex Lactam (SEQ ID NO: 489), parent w/o PEG (peptide)
# peptide: H[Aib]QGTFTSDYSKYLDEQAAKEFIAWLMNGGPSSGAPPPSC-NH2
# modifications: lactam 16-20; N-terminus assumed
# SMILES: CC[C@H](C)[C@H](NC(=O)[C@H](Cc1ccccc1)NC(=O)[C@H](CCC(=O)O)NC(=O)[C@@H]1CCCCNC(=O)CC[C@H](NC(=O)[C@H](CC(=O)O)NC(=O)[C@H](CC(C)C)NC(=O)[C@H](Cc2ccc(O)cc2)NC(=O)[C@H](CCCCN)NC(=O)[C@H](CO)NC(=O)[C@H](Cc2ccc(O)cc2)NC(=O)[C@H](CC(=O)O)NC(=O)[C@H](CO)NC(=O)[C@@H](NC(=O)[C@H](Cc2ccccc2)NC(=O)[C@@H](NC(=O)CNC(=O)[C@H](CCC(N)=O)NC(=O)C(C)(C)NC(=O)[C@@H](N)Cc2c[nH]cn2)[C@@H](C)O)[C@@H](C)O)C(=O)N[C@@H](CCC(N)=O)C(=O)N[C@@H](C)C(=O)N[C@@H](C)C(=O)N1)C(=O)N[C@@H](C)C(=O)N[C@@H](Cc1c[nH]c2ccccc12)C(=O)N[C@@H](CC(C)C)C(=O)N[C@@H](CCSC)C(=O)N[C@@H](CC(N)=O)C(=O)NCC(=O)NCC(=O)N1CCC[C@H]1C(=O)N[C@@H](CO)C(=O)N[C@@H](CO)C(=O)NCC(=O)N[C@@H](C)C(=O)N1CCC[C@H]1C(=O)N1CCC[C@H]1C(=O)N1CCC[C@H]1C(=O)N[C@@H](CO)C(=O)N[C@@H](CS)C(N)=O
# Key:
# [1] = target: glucagon receptor (UniProt P47871 26-477, limits assumed); experiment: cell-based or functional assay
# Sequence of glucagon receptor (P47871 26-477 limits assumed): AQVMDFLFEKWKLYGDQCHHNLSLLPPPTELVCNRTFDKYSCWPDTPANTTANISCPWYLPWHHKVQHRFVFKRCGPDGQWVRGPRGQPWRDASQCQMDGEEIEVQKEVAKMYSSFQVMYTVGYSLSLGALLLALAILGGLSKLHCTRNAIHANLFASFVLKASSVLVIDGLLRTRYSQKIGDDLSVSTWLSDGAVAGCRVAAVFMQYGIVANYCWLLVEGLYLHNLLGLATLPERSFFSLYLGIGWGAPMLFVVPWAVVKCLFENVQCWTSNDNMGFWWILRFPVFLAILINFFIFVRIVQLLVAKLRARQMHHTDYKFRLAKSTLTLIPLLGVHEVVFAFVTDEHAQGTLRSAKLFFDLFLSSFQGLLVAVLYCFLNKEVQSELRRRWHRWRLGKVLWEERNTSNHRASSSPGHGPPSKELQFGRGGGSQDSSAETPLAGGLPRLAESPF
# [2] = target: GLP-1 receptor (UniProt P43220 24-463, limits assumed); experiment: cell-based or functional assay
Binder,% Potency Relative to Native [1] [%],% Potency Relative to Native [2] [%]
"H[Aib]QGTFTSDYSKYLDEQAAKEFIAWLMNC(PEG)-NH2 (reading uncertain) [Chimera AIB2, Cys29 (SEQ ID NO: 487), parent w/PEG]",5.6,54.3
"H[Aib]QGTFTSDYSKYLDEQAAKEFIAWLMNGGPSSGAPPPSC(PEG)-NH2 (lactam 16-20; reading uncertain) [Chimera AIB2, Gly29,30 Cys40 Cex Lactam (SEQ ID NO: 489), parent w/PEG]",3.2,63.6
"H[Aib]QGTFTSDYSKYLDEQAAKEFIC(PEG)WLMNGGPSSGAPPPS-NH2 (reading uncertain) [Chimera AIB2, Gly29,30 Cys24 Cex (SEQ ID NO: 490), parent w/PEG]",0.2,95.4
B1,2.5,458
B2,20.1,125
B3,2.2,359
B4,14.2,170
"H[Aib]QGTFTSDYSKYLDEQAAKEFIAWLMNGGPSSGAPPPSC(PEG)-NH2 (reading uncertain) [Chimera AIB2, Gly29,30 Cys40 Cex (SEQ ID NO: 488), parent w/PEG]",0.3,68.8
